From patent US20230380451A1, “MEANS AND METHODS TO DETOXIFY MYCOTOXINS” (priority 2020, published 2023)

Experiments:
[1] = Storage stability at different pH values, residual DON transformation activity; type: biochemical; conditions: storage at 30° C.
Method: (§1) To determine the transformation of DON to epi-THS by Akr I-III, described herein, the following assay was performed. An assay buffer was prepared containing 40 ppm DON, 1 mM NADPH in Teorell Stenhagen (TS) buffer, pH 6.0 (Östling and Virtama, Acta Physiologica Scandinavica, 1946, 11:4, 289-293). Tubes containing the assay buffer were transferred in a heating block at 30° C. The reaction was started by addition of Akr I-III to a final concentration of 200 nM in a final reaction volume of 200 μL. Samples were taken before reaction start, and 2, 5, 10, 15 and 20 min after reaction start. DON transformation reactions in these samples were stopped by mixing with absolute methanol at a 1:2 ratio, followed by a 1:100 dilution with 40% methanol. The concentrations of DON and epi-THS in the samples were determined with liquid chromatography-mass spectrometry (LC-MS) on a Sciex 5500 triple quadrupole mass spectrometer coupled to Agilent 1290 series UHPLC system, using the following MS parameters: Acquisition duration: 4 min; Scan Type: MRM (MRM); Polarity: Negative; Ion Source: Turbo Spray.
The storage stability of Akr I-III at different pH values was tested by incubating 1 μM enzyme in TS buffer solutions with a pH of 3.0-10.0 for 4 h at 30° C. in standard 1.5 ml Eppendorf tubes. Every hour, a DON transformation assay was conducted as described in Example 3. The starting activity at time 0 min was set to 100% and the relative residual activities were determined throughout the incubation. For the DON transformation assays, 80 μl of the storage solution were added to an assay reaction with a final volume of 400 μl, which corresponds to a 1:5 dilution of the storage solution. Akr I retained more than 93% activity during 4 hours at 30° C. from pH 4.0-10.0. Akr II retained 30% to 93% activity during 4 hours at 30° C. from pH […] retained 27% to 85% activity during 4 hours at 30° C. from pH 4.0-9.0. Akr I-III retained more than 40% of their activity for 4 hours at 30° C. from pH 4.0 to pH 8.0.

[2] = Storage stability in storage buffer at different temperatures, residual DON transformation activity; type: biochemical; conditions: for Relative DON transformation activity: storage buffer
Method: as §1
The storage stability of Akr I-III was tested by incubation of 5 μM enzyme solutions in storage buffer (50 mM Tris pH 9.0, 0.5M NaCl, 50% Glycerol), for 60 min in a thermocycler (Mastercycler, Eppendorf) set to gradient mode from 30° C. to 50° C. Throughout the incubation, samples were removed and placed on ice until DON transformation assays were performed as described in Example 3 to determine enzyme activities. The starting activity at time 0 min was set to 100% and the relative residual activities were determined throughout the incubation. Akr I retained more than 33% activity during 60 min in pH 6 at temperatures from 29.9° C. to 46.0° C. Akr III retained 15% to 90% activity during 20 min in pH 6 at temperatures from 29.9° C. to 40.7° C.

B1: Akr III: artificial amino acid sequence, variant of a wild type aldo-keto reductase (protein)
chain: MRTTEIAQGLKVSNLCIGAGPLGGMPTAFGYDVSEERGIATVQAVFDSPINFMDTSSEYGGSEARIGKVIREGRMPKGFVISSKADAEGEGVGRRGDFSAKQVRASFELSLERLGLTHLDVYFLHDPEKFPFEQVMARGGAMEELLRLKDEGLVGLVGVAGGDVLEMARYVDTGSLDILLNYGRYTILDRSADSLITKVSDAGMAFLNAGPYASGLLAAPRGGSAWYQYAPPDATALQAVDQLHELCESFDVSLRSVALQFSMRDPRITSTVVGLSRPERVRALLDDEAAEIPAELWEQLPAPLNGDIVLPR
modifications: ArkIII
In the case of B1, the “Relative DON-transformation activity” value ([1]; pH 3.0, 0 h (starting activity set to 100%)) is reported as 100.0%, the “Relative DON-transformation activity” value ([1]; pH 3.0, 1 h) is reported as 13.5% and the “Relative DON-transformation activity” value ([1]; pH 3.0, 2 h) is reported as 19.3%. The “Relative DON-transformation activity” value ([1]; pH 3.0, 3 h) was 0.0%, the “Relative DON-transformation activity” value ([1]; pH 3.0, 4 h) was 0.0% and the “Relative DON-transformation activity” value ([1]; pH 4.0, 0 h (starting activity set to 100%)) was 100.0%. For the same molecule, the “Relative DON-transformation activity” value ([1]; pH 4.0, 1 h) was 95.1%, the “Relative DON-transformation activity” value ([1]; pH 4.0, 2 h) was 84.4% and the “Relative DON-transformation activity” value ([1]; pH 4.0, 3 h) was 74.8%. The “Relative DON-transformation activity” value ([1]; pH 4.0, 4 h) was 57.7%, the “Relative DON-transformation activity” value ([1]; pH 5.0, 0 h (starting activity set to 100%)) was 100.0% and the “Relative DON-transformation activity” value ([1]; pH 5.0, 1 h) was 97.7%. For the same molecule, the “Relative DON-transformation activity” value ([1]; pH 5.0, 2 h) was 96.3%, the “Relative DON-transformation activity” value ([1]; pH 5.0, 3 h) was 90.7% and the “Relative DON-transformation activity” value ([1]; pH 5.0, 4 h) was 85.2%. For the same molecule, the “Relative DON-transformation activity” value ([1]; pH 6.0, 0 h (starting activity set to 100%)) was 100.0%, the “Relative DON-transformation activity” value ([1]; pH 6.0, 1 h) was 97.8% and the “Relative DON-transformation activity” value ([1]; pH 6.0, 2 h) was 94.9%. The “Relative DON-transformation activity” value ([1]; pH 6.0, 3 h) was 93.1%, the “Relative DON-transformation activity” value ([1]; pH 6.0, 4 h) was 78.9% and the “Relative DON-transformation activity” value ([1]; pH 7.0.0, 0 h (starting activity set to 100%)) was 100.0%. The “Relative DON-transformation activity” value ([1]; pH 7.0.0, 1 h) was 93.0%, the “Relative DON-transformation activity” value ([1]; pH 7.0.0, 2 h) was 91.3% and the “Relative DON-transformation activity” value ([1]; pH 7.0.0, 3 h) was 85.1%. The “Relative DON-transformation activity” value ([1]; pH 7.0.0, 4 h) was 74.0%, the “Relative DON-transformation activity” value ([1]; pH 8.0, 0 h (starting activity set to 100%)) was 100.0% and the “Relative DON-transformation activity” value ([1]; pH 8.0, 1 h) was 94.2%. The “Relative DON-transformation activity” value ([1]; pH 8.0, 2 h) was 77.9%, the “Relative DON-transformation activity” value ([1]; pH 8.0, 3 h) was 69.0% and the “Relative DON-transformation activity” value ([1]; pH 8.0, 4 h) was 57.6%. The “Relative DON-transformation activity” value ([1]; pH 9.0.0, 0 h (starting activity set to 100%)) was 100.0%, the “Relative DON-transformation activity” value ([1]; pH 9.0.0, 1 h) was 76.3% and the “Relative DON-transformation activity” value ([1]; pH 9.0.0, 2 h) was 61.3%. The “Relative DON-transformation activity” value ([1]; pH 9.0.0, 3 h) was 54.1%, the “Relative DON-transformation activity” value ([1]; pH 9.0.0, 4 h) was 27.4% and the “Relative DON-transformation activity” value ([1]; pH 10.0, 0 h (starting activity set to 100%)) was 100.0%. For the same molecule, the “Relative DON-transformation activity” value ([1]; pH 10.0, 1 h) was 47.0%, the “Relative DON-transformation activity” value ([1]; pH 10.0, 2 h) was 27.1% and the “Relative DON-transformation activity” value ([1]; pH 10.0, 3 h) was 17.0%. For the same molecule, the “Relative DON-transformation activity” value ([1]; pH 10.0, 4 h) was 15.4%, the retained activity ([2]; during 60 min in pH 6 at temperatures from 29.9° C. to 46.0° C.) was “more than 50%” and the “Relative DON transformation activity” value ([2]; 29.9° C., 0 min (starting activity set to 100%)) was 100.00%. For the same molecule, the “Relative DON transformation activity” value ([2]; 29.9° C., 5 min) was 89.1%, the “Relative DON transformation activity” value ([2]; 29.9° C., 10 min) was 91.6% and the “Relative DON transformation activity” value ([2]; 29.9° C., 20 min) was 90.3%. For the same molecule, the “Relative DON transformation activity” value ([2]; 29.9° C., 35 min) was 93.1%, the “Relative DON transformation activity” value ([2]; 29.9° C., 50 min) was 74.0% and the “Relative DON transformation activity” value ([2]; 29.9° C., 60 min) was 72.2%. The “Relative DON transformation activity” value ([2]; 35.3° C., 0 min (starting activity set to 100%)) was 100.00%, the “Relative DON transformation activity” value ([2]; 35.3° C., 5 min) was 96.00% and the “Relative DON transformation activity” value ([2]; 35.3° C., 10 min) was 65.2%. The “Relative DON transformation activity” value ([2]; 35.3° C., 20 min) was 98.6%, the “Relative DON transformation activity” value ([2]; 35.3° C., 35 min) was 75.2% and the “Relative DON transformation activity” value ([2]; 35.3° C., 50 min) was 80.2%. For the same molecule, the “Relative DON transformation activity” value ([2]; 35.3° C., 60 min) was 104.3%, the “Relative DON transformation activity” value ([2]; 37.9° C., 0 min (starting activity set to 100%)) was 100.00% and the “Relative DON transformation activity” value ([2]; 37.9° C., 5 min) was 94.01%. For the same molecule, the “Relative DON transformation activity” value ([2]; 37.9° C., 10 min) was 74.5%, the “Relative DON transformation activity” value ([2]; 37.9° C., 20 min) was 43.9% and the “Relative DON transformation activity” value ([2]; 37.9° C., 35 min) was 75.2%. For the same molecule, the “Relative DON transformation activity” value ([2]; 37.9° C., 50 min) was 80.9%, the “Relative DON transformation activity” value ([2]; 37.9° C., 60 min) was 78.6% and the “Relative DON transformation activity” value ([2]; 40.7° C., 0 min (starting activity set to 100%)) was 100.00%. For the same molecule, the “Relative DON transformation activity” value ([2]; 40.7° C., 5 min) was 104.1%, the “Relative DON transformation activity” value ([2]; 40.7° C., 10 min) was 76.1% and the “Relative DON transformation activity” value ([2]; 40.7° C., 20 min) was 81.6%. The “Relative DON transformation activity” value ([2]; 40.7° C., 35 min) was 104.5%, the “Relative DON transformation activity” value ([2]; 40.7° C., 50 min) was 75.8% and the “Relative DON transformation activity” value ([2]; 40.7° C., 60 min) was 105.1%. The “Relative DON transformation activity” value ([2]; 43.4° C., 0 min (starting activity set to 100%)) was 100.00%, the “Relative DON transformation activity” value ([2]; 43.4° C., 5 min) was 83.4% and the “Relative DON transformation activity” value ([2]; 43.4° C., 10 min) was 68.1%. For the same molecule, the “Relative DON transformation activity” value ([2]; 43.4° C., 20 min) was 66.7%, the “Relative DON transformation activity” value ([2]; 43.4° C., 35 min) was 89.3% and the “Relative DON transformation activity” value ([2]; 43.4° C., 50 min) was 81.3%. For the same molecule, the “Relative DON transformation activity” value ([2]; 43.4° C., 60 min) was 91.8%, the “Relative DON transformation activity” value ([2]; 46.0° C., 0 min (starting activity set to 100%)) was 100.00% and the “Relative DON transformation activity” value ([2]; 46.0° C., 5 min) was 97.7%. The “Relative DON transformation activity” value ([2]; 46.0° C., 10 min) was 62.6%, the “Relative DON transformation activity” value ([2]; 46.0° C., 20 min) was 62.5% and the “Relative DON transformation activity” value ([2]; 46.0° C., 35 min) was 58.4%. For the same molecule, the “Relative DON transformation activity” value ([2]; 46.0° C., 50 min) was 23.3%, the “Relative DON transformation activity” value ([2]; 46.0° C., 60 min) was 50.4% and the “Relative DON transformation activity” value ([2]; 50.8° C., 0 min (starting activity set to 100%)) was 100.00%. For the same molecule, the “Relative DON transformation activity” value ([2]; 50.8° C., 5 min) was 77.4%, the “Relative DON transformation activity” value ([2]; 50.8° C., 10 min) was 72.7% and the “Relative DON transformation activity” value ([2]; 50.8° C., 20 min) was 19.5%. For the same molecule, the “Relative DON transformation activity” value ([2]; 50.8° C., 35 min) was 16.6%, the “Relative DON transformation activity” value ([2]; 50.8° C., 50 min) was 10.9% and the “Relative DON transformation activity” value ([2]; 50.8° C., 60 min) was 16.0%.
